{"source": "patent US20200377588A1", "about": "“Highly Versatile Method of Presenting Cyclic Peptide on Protein Structure” (The University of Tokyo, priority 2017, published 2020)", "key": {"Plexin B1-PA": {"biological_target": "T1, Plexin B1-PA (Homo sapiens, UniProt O43157)", "T1 construct": "made in house; host or cells: Expi293F cells (secreted, culture supernatant)", "T1 sequence (O43157 20-1490 limits assumed)": "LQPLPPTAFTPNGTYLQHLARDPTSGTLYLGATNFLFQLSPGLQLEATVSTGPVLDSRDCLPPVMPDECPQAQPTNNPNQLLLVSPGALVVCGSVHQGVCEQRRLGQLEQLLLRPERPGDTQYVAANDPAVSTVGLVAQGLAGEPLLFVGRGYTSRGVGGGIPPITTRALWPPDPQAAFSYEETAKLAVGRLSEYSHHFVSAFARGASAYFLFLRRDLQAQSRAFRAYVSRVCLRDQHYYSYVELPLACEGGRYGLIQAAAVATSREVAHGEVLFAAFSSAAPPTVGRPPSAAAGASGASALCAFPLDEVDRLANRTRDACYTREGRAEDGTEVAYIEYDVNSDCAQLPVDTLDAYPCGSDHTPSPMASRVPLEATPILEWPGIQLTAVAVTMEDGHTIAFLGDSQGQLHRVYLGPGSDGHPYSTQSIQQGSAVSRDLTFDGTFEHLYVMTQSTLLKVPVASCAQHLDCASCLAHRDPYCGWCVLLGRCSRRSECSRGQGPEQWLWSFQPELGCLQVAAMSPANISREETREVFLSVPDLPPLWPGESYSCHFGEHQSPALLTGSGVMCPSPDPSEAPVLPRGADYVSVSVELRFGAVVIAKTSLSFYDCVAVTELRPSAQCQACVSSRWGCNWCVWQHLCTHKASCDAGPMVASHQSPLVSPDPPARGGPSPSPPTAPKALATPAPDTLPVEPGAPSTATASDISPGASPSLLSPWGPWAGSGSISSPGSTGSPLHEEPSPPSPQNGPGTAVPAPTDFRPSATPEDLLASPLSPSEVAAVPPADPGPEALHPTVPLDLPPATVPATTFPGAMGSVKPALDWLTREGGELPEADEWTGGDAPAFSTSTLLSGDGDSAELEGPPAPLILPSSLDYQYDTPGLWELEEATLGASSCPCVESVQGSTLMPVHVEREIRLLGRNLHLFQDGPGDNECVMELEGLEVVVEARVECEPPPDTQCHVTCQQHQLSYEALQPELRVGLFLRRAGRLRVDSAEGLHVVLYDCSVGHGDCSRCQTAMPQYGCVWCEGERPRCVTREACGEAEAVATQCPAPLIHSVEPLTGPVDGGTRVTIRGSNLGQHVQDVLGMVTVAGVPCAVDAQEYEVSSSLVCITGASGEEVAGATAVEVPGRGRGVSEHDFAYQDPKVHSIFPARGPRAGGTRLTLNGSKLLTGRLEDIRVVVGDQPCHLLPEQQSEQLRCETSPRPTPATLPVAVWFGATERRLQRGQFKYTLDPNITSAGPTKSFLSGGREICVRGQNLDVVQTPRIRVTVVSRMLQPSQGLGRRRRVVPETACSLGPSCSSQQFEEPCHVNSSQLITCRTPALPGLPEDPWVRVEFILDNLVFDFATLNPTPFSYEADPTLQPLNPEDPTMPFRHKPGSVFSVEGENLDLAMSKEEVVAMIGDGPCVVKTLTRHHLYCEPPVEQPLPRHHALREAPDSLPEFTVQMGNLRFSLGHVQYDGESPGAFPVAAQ", "test": "pull-down type binding experiment, Plexin B1-PA captured on NZ-1 Sepharose, SDS-PAGE", "method": "(§1) A pull-down type binding experiment was performed to study whether or not Fn10-Fc having various cyclic peptides fused therein retained its binding ability, which the cyclic peptides had before fusion, to binding molecules. In accordance with the method described in Protein Exp. Purification, 2014, 95, 240-247, respective constructs encoding fusion proteins having a PA tag (product of Wako Pure Chemical Industries) added to the C terminus of an extracellular region of four binding molecules (each, single-pass membrane receptor) were created and the resulting constructs were each incorporated in an expression vector pcDNA3.1 (product of Thermo Fisher Scientific). After transient expression in Expi293F cells by the above-described method while using the vector, respective culture supernatants containing Plexin B1-PA, Met-PA, EGFR-PA, and TrkB-PA, which were soluble receptor fragments, were prepared.\n(§2) To 0.5 mL of the culture supernatant containing the PA-tag added receptor extracellular region, 30 μL of Sepharose (product of Wako Pure Chemical Industries) on which NZ-1, an anti-PA tag antibody, was immobilized and the resulting mixture was mixed by rotation for 2 hours to capture the binding molecule on Sepharose. […]"}, "Met-PA": {"biological_target": "T2, Met-PA (Homo sapiens, UniProt P08581)", "T2 construct": "made in house; host or cells: Expi293F cells (secreted, culture supernatant)", "T2 sequence (P08581 25-932 limits assumed)": "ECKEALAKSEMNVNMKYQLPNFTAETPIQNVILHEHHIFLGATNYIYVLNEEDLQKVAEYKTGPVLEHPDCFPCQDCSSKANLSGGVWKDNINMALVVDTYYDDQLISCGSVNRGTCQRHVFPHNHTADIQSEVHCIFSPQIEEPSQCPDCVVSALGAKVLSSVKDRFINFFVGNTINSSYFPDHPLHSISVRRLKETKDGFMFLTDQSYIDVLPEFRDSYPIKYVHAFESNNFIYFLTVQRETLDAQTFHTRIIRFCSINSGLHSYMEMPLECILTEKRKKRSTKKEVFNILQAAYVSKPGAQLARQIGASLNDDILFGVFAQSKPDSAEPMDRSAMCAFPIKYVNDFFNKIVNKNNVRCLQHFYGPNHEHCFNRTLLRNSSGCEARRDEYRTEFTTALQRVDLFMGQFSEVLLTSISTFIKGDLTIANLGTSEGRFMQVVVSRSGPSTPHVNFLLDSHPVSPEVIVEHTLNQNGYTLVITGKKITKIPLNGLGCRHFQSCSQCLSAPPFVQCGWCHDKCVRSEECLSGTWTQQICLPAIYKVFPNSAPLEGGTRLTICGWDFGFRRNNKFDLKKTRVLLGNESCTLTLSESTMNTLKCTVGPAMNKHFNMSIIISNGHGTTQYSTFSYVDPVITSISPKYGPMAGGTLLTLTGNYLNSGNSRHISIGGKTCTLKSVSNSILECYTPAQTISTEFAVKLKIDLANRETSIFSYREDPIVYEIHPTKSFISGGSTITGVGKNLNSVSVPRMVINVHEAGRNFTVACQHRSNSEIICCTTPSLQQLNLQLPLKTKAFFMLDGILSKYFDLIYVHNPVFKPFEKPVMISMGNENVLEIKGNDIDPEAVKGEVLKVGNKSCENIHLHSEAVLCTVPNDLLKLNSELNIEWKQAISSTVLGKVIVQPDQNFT", "test": "pull-down type binding experiment, Met-PA captured on NZ-1 Sepharose, SDS-PAGE", "settings": "Example 1, Fn10-Fc mutants, culture supernatant, FIG. 5"}, "EGFR-PA": {"biological_target": "T3, EGFR-PA (Homo sapiens, UniProt P00533)", "T3 construct": "made in house; host or cells: Expi293F cells (secreted, culture supernatant)", "test": "pull-down type binding experiment, EGFR-PA captured on NZ-1 Sepharose, SDS-PAGE", "settings": "Example 1, Fn10-Fc mutants, culture supernatant, FIG. 5", "method": "as §1, §2"}, "TrkB-PA": {"biological_target": "T4, TrkB-PA (Homo sapiens, UniProt Q16620)", "T4 construct": "made in house; host or cells: Expi293F cells (secreted, culture supernatant)", "test": "pull-down type binding experiment, TrkB-PA captured on NZ-1 Sepharose, SDS-PAGE", "settings": "Example 1, Fn10-Fc mutants, culture supernatant, FIG. 5", "method": "as §1, §2"}, "Plexin B1-Fc": {"biological_target": "T5, Plexin B1-Fc (Homo sapiens, UniProt O43157)", "T5 construct": "Protein A Sepharose that had captured a soluble receptor fragment Plexin B1-Fc therein", "T5 sequence (O43157 20-1490 limits assumed)": "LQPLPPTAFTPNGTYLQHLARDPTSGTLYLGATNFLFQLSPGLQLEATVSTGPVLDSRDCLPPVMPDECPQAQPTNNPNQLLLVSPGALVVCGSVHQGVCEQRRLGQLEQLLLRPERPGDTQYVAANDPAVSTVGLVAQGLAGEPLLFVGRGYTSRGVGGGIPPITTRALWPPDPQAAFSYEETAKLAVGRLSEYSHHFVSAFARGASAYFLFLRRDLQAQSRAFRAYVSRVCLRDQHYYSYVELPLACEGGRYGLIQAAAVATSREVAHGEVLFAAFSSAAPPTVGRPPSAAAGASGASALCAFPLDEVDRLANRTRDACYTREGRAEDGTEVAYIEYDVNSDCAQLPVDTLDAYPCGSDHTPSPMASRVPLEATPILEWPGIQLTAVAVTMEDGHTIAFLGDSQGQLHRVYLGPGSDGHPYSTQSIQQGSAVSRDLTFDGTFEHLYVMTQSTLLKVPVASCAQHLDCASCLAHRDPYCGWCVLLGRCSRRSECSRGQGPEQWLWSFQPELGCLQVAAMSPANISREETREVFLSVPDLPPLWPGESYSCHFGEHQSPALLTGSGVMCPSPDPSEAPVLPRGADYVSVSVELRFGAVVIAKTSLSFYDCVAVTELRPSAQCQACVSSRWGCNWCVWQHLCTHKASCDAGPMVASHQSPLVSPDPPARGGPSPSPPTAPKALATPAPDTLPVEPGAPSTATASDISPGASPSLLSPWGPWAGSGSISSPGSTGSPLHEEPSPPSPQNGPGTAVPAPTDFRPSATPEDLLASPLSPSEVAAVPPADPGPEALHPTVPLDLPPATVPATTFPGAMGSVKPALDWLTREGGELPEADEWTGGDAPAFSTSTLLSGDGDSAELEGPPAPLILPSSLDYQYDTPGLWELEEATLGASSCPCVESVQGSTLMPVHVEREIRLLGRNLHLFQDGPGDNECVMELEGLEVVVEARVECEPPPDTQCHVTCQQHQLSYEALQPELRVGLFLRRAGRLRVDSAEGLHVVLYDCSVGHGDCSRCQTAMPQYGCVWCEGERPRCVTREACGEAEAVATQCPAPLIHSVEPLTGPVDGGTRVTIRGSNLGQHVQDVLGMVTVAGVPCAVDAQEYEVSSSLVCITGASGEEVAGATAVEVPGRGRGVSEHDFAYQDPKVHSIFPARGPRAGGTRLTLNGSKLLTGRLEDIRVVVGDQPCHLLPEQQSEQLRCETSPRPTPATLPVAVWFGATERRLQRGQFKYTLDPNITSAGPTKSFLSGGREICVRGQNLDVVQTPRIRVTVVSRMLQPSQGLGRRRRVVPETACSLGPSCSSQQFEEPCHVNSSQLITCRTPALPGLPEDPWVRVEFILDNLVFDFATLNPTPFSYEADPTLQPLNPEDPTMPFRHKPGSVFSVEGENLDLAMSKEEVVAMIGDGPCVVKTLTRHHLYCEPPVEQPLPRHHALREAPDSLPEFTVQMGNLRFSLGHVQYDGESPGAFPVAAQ", "test": "pulldown, Plexin B1-Fc captured on protein A-Sepharose, SDS-PAGE", "assay_type": "binding", "settings": "Example 7, PLAP mutants, FIG. 27", "description": "It is to be noted, however, that for the mP6-9 peptide fusion protein, not Plexin B1-PA but Plexin B1-Fc protein was used as a binding molecule and as pulldown beads, not NZ-1-Sepharose but protein A-Sepharose was used."}, "Met-Fc": {"biological_target": "T6, Met-Fc (Homo sapiens, UniProt P08581)", "T6 construct": "captured a soluble receptor fragment Plexin B1-Fc or Met-Fc therein", "T6 sequence (P08581 25-932 limits assumed)": "as the sequence (P08581 25-932 limits assumed) above", "test": "pulldown, Met-Fc captured on Protein A Sepharose, SDS-PAGE", "assay_type": "binding", "settings": "Example 7, PLAP mutants, FIG. 27", "description": "Binding of the resulting cyclic peptide fusion protein (PLAP mutant) to Protein A Sepharose that had captured a soluble receptor fragment Plexin B1-Fc or Met-Fc therein by the method described above I Example 1 was studied by the pulldown method."}}, "data": [{"molecule": "Fn10-Fc: tenth Type III repeat domain of human fibronectin (residues 1418 to 1509) fused to human IgG1 Fc, no peptide inserted; control", "values": [{"measurement": "binding to Plexin B1-PA (pulldown)", "setting": "Plexin B1-PA; Example 1, Fn10-Fc mutants, culture supernatant, FIG. 5", "value": "did not show a binding property"}, {"measurement": "binding to Met-PA (pulldown)", "setting": "Met-PA", "value": "did not show a binding property"}, {"measurement": "binding to EGFR-PA (pulldown)", "setting": "EGFR-PA", "value": "did not show a binding property"}, {"measurement": "binding to TrkB-PA (pulldown)", "setting": "TrkB-PA", "value": "did not show a binding property"}]}, {"molecule": "hGH: full-length human growth hormone with Hisx8 tag and TEV site, no cyclic peptide fused; control", "values": [{"measurement": "binding to Plexin B1-PA (pulldown)", "setting": "Plexin B1-PA; Example 5, hGH mutants, FIG. 20B", "value": "does not bind to Plexin B1-PA"}]}, {"molecule": "PLAP: full-length human placental alkaline phosphatase with Myc and Hisx6 tags, no cyclic peptide fused; control (protein, UniProt P05187 1-535, looked up, full-length Myc and His6 tags, full-length human placental alkaline phosphatase with Myc and Hisx6 tags, no cyclic peptide fused; control) MLGPCMLLLLLLLGLRLQLSLGIIPVEEENPDFWNREAAEALGAAKKLQPAQTAAKNLIIFLGDGMGVSTVTAARILKGQKKDKLGPEIPLAMDRFPYVALSKTYNVDKHVPDSGATATAYLCGVKGNFQTIGLSAAARFNQCNTTRGNEVISVMNRAKKAGKSVGVVTTTRVQHASPAGTYAHTVNRNWYSDADVPASARQEGCQDIATQLISNMDIDVILGGGRKYMFRMGTPDPEYPDDYSQGGTRLDGKNLVQEWLAKRQGARYVWNRTELMQASLDPSVTHLMGLFEPGDMKYEIHRDSTLDPSLMEMTEAALRLLSRNPRGFFLFVEGGRIDHGHHESRAYRALTETIMFDDAIERAGQLTSEEDTLSLVTADHSHVFSFGGYPLRGSSIFGLAPGKARDRKAYTVLLYGNGPGYVLKDGARPDVTESESGSPEYRQQSAVPLDEETHAGEDVAVFARGPQAHLVHGVQEQTFIAHVMAFAACLEPYTACDLAPPAGTTDAAHPGRSVVPALLPLLAGTLLLLETATAP", "values": [{"measurement": "binding to Plexin B1-Fc (pulldown)", "setting": "Plexin B1-Fc", "value": "does not bind"}, {"measurement": "binding to Met-Fc (pulldown)", "setting": "Met-Fc", "value": "does not bind"}]}]}
